As a reminder, the stoichiometry N is the number of molecules, sites or subunits per partner or assembly.

For one substance, stoichiometry N results are on record in publication PMC5729044.

The target of this test is 1wa3-wt, the wild-type trimeric aldolase from which I3-01 was derived. Briefly: SEC. On the technique in general: Size exclusion chromatography separates by hydrodynamic size, large species first.

“1wa3-wt, the wild-type trimeric aldolase from which I3-01 was derived (enzyme)” gave a stoichiometry N of 3.
